B1: DNA repair protein RAD51 (Saccharomyces cerevisiae), P25454 (parent)
chain: MSQVQEQHISESQLQYGNGSLMSTVPADLSQSVVDGNGNGSSEDIEATNGSGDGGGLQEQAEAQGEMEDEAYDEAALGSFVPIEKLQVNGITMADVKKLRESGLHTAEAVAYAPRKDLLEIKGISEAKADKLLNEAARLVPMGFVTAADFHMRRSELICLTTGSKNLDTLLGGGVETGSITELFGEFRTGKSQLCHTLAVTCQIPLDIGGGEGKCLYIDTEGTFRPVRLVSIAQRFGLDPDDALNNVAYARAYNADHQLRLLDAAAQMMSESRFSLIVVDSVMALYRTDFSGRGELSARQMHLAKFMRALQRLADQFGVAVVVTNQVVAQVDGGMAFNPDPKKPIGGNIMAHSSTTRLGFKKGKGCQRLCKVVDSPCLPEAECVFAIYEDGVGDPREEDE

Variants of: B1
Conditions: with smt3_yeast SMT3, Q12306
Sequence of smt3_yeast SMT3, Q12306 (Q12306 whole entry): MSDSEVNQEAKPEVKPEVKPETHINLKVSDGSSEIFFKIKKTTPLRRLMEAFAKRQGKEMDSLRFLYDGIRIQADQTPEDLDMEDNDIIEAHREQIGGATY

Variant	effect of a mutation on the interaction
MSQVQEQHISESQLQYGNGSLMSTVPADLSQSVVDGNGNGSSEDIEATNGSGDGGGLQEQAEAQGEMEDEAYDEAALGSFVPIEKLQVNGITMADVKKLRESGLHTAEAVAYAPRKDLLEIKGISEAKADKLLNEAARLVPMGFVTAADFHMRRSELICLTTGSKNLDTLLGGGVETGSITELFGEFRTGKSQLCHTLAVTCQIPLDIGGGEGKCLYIDTEGTFRPVRLVSIAQRFGLDPDDALNNVAYARAYNADHQLRLLDAAAQMMSESRFSLIVVDSVMALYRTDFSGRGELSARQMHLAKFMRALQRLADQFGVAAAVTNQVVAQVDGGMAFNPDPKKPIGGNIMAHSSTTRLGFKKGKGCQRLCKVVDSPCLPEAECVFAIYEDGVGDPREEDE [V321A;V322A]	disrupting interaction strength

Variants of: B1
Conditions: with rad52_yeast RAD52, P06778

Variant	effect of a mutation on the interaction
MSQVQEQHISESQLQYGNGSLMSTVPADLSQSVVDGNGNGSSEDIEATNGSGDGGGLQEQAEAQGEMEDEAYDEAALGSFVPIEKLQVNGITMADVKKLRESGLHTAEAVAYAPRKDLLEIKGISEAKADKLLNEAARLVPMGFVTAADFHMRRSELICLTTGSKNLDTLLGGGVETGSITELFGEFRTGKSQLCHTLAVTCQIPLDIGGGEGKCLYIDTEGTFRPVRLVSIAQRFGLDPDDALNNVAYARAYNADHQLRLLDAAAQMMSESRFSLIVVDSVMALYRTDFSGRGELSARQMHLAKFMRALQRLADQFGVAAAVTNQVVAQVDGGMAFNPDPKKPIGGNIMAHSSTTRLGFKKGKGCQRLCKVVDSPCLPEAECVFAIYEDGVGDPREEDE [V321A;V322A]	decreasing interaction strength

From IntAct's records for PubMed 23624404
